Laboratory results taken from article PMC10397247.
Each block holds one binder with its values, some of them ahead of it.

How the values were obtained:
4H2944-bN = biological target: T1, 4H2944-bN; assay: two-hybrid library CCNG1;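 also: natural log of median RNA to DNA barcode read ratio; higher means stronger binding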
T1 chain: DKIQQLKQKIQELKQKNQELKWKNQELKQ

4H342-bN = biological target: T2, 4H342-bN; assay: two-hybrid library CCNG1;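 also: natural log of median RNA to DNA barcode read ratio; higher means stronger binding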
T2 chain: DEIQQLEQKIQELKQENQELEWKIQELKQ

4H491-bN = biological target: T3, 4H491-bN; assay: two-hybrid library CCNG1;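 also: natural log of median RNA to DNA barcode read ratio; higher means stronger binding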
T3 chain: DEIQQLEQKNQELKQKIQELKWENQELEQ

4H48-bN = biological target: T4, 4H48-bN; assay: two-hybrid library CCNG1;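 also: natural log of median RNA to DNA barcode read ratio; higher means stronger binding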
T4 chain: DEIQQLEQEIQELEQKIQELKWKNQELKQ

4H1351-AA = biological target: T5, 4H1351-AA; assay: two-hybrid library CCmax;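 also: natural log of median RNA to DNA barcode read ratio; higher means stronger binding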
T5 chain: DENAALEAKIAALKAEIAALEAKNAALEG

4H3606-AA = biological target: T6, 4H3606-AA; assay: two-hybrid library CCmax; conditions: mean of both orientations;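 also: natural log of median RNA to DNA barcode read ratio; higher means stronger binding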
T6 chain: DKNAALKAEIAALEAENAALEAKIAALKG

4H697-AA = biological target: T7, 4H697-AA; assay: two-hybrid library CCmax; conditions: mean of both orientations
T7 chain: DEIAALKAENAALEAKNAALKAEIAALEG

4H340-AA = biological target: T8, 4H340-AA; assay: two-hybrid library CCmax; conditions: mean of both orientations
T8 chain: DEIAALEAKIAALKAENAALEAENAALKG

4H3588-AA = biological target: T9, 4H3588-AA; assay: two-hybrid library CCmax; conditions: mean of both orientations
T9 chain: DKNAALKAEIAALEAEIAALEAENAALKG

4H1874-AA = biological target: T10, 4H1874-AA; assay: two-hybrid library CCmax; conditions: mean of both orientations
T10 chain: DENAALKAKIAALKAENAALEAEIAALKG

4H3162-AA = biological target: T11, 4H3162-AA; assay: two-hybrid library CCmax; conditions: mean of both orientations
T11 chain: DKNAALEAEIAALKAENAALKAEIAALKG

4H1513-AA = biological target: T12, 4H1513-AA; assay: two-hybrid library CCmax; conditions: mean of both orientations
T12 chain: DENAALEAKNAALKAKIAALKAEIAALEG

4H3718-AA = biological target: T13, 4H3718-AA; assay: two-hybrid library CCmax; conditions: mean of both orientations
T13 chain: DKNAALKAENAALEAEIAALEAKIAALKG

4H1388-AA = biological target: T14, 4H1388-AA; assay: two-hybrid library CCmax; conditions: mean of both orientations
T14 chain: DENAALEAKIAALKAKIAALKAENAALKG

4H3413-AA = biological target: T15, 4H3413-AA; assay: two-hybrid library CCmax; conditions: mean of both orientations
T15 chain: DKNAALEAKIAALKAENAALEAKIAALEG

4H1845-AA = biological target: T16, 4H1845-AA; assay: two-hybrid library CCmax; conditions: mean of both orientations
T16 chain: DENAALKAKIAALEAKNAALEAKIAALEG

4H3631-AA = biological target: T17, 4H3631-AA; assay: two-hybrid library CCmax
T17 chain: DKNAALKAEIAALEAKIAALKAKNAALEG

4H3697-AA = biological target: T18, 4H3697-AA; assay: two-hybrid library CCmax; conditions: mean of both orientations
T18 chain: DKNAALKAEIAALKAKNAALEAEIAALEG

4H384-AA = biological target: T19, 4H384-AA; assay: two-hybrid library CCmax; conditions: mean of both orientations
T19 chain: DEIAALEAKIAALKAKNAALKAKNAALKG

4H3378-AA = biological target: T20, 4H3378-AA; assay: two-hybrid library CCmax
T20 chain: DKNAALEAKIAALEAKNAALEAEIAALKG

4H3865-AA = biological target: T21, 4H3865-AA; assay: two-hybrid library CCmax; conditions: mean of both orientations
T21 chain: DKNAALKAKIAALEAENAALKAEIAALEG

4H2198-AA = biological target: T22, 4H2198-AA; assay: two-hybrid library CCmax; conditions: mean of both orientations
T22 chain: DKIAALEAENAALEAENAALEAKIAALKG

4H3133-AA = biological target: T23, 4H3133-AA; assay: two-hybrid library CCmax; conditions: mean of both orientations
T23 chain: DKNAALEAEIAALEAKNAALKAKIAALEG

4H2907-AA = biological target: T24, 4H2907-AA; assay: two-hybrid library CCmax; conditions: mean of both orientations
T24 chain: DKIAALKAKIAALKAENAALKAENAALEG

4H1401-AA = biological target: T25, 4H1401-AA; assay: two-hybrid library CCmax; conditions: mean of both orientations
T25 chain: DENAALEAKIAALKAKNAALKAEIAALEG

4H2553-AA = biological target: T26, 4H2553-AA; assay: two-hybrid library CCmax; conditions: mean of both orientations
T26 chain: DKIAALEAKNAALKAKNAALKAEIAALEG

4H2648-AA = biological target: T27, 4H2648-AA; assay: two-hybrid library CCmax; conditions: mean of both orientations
T27 chain: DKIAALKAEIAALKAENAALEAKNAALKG

4H3056-AA = biological target: T28, 4H3056-AA; assay: two-hybrid library CCmax; conditions: mean of both orientations
T28 chain: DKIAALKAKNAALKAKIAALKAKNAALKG

4H982-AA = biological target: T29, 4H982-AA; assay: two-hybrid library CCmax; conditions: mean of both orientations
T29 chain: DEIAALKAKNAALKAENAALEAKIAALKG

4H1629-AA = biological target: T30, 4H1629-AA; assay: two-hybrid library CCmax; conditions: mean of both orientations
T30 chain: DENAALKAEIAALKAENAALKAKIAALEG

4H1594-AA = biological target: T31, 4H1594-AA; assay: two-hybrid library CCmax; conditions: mean of both orientations
T31 chain: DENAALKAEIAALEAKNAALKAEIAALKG

4H32-AA = biological target: T32, 4H32-AA; assay: two-hybrid library CCmax; conditions: mean of both orientations
T32 chain: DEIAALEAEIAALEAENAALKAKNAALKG

4H2620-AA = biological target: T33, 4H2620-AA; assay: two-hybrid library CCmax; conditions: mean of both orientations
T33 chain: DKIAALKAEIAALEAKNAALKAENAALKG

4H2611-AA = biological target: T34, 4H2611-AA; assay: two-hybrid library CCmax; conditions: mean of both orientations
T34 chain: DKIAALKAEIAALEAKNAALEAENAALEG

4H235-bN = biological target: T35, 4H235-bN; assay: two-hybrid library CCNG1
T35 chain: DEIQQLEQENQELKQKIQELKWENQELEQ

4H2518-bN = biological target: T36, 4H2518-bN; assay: two-hybrid library CCNG1
T36 chain: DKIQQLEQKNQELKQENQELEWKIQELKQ

4H2931-bN = biological target: T37, 4H2931-bN; assay: two-hybrid library CCNG1
T37 chain: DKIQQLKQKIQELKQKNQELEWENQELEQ

4H2859-bN = biological target: T38, 4H2859-bN; assay: two-hybrid library CCNG1
T38 chain: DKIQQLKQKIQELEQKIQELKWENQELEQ

4H349-bN = biological target: T39, 4H349-bN; assay: two-hybrid library CCNG1
T39 chain: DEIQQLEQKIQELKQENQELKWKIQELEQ

4H3381-bN = biological target: T40, 4H3381-bN; assay: two-hybrid library CCNG1
T40 chain: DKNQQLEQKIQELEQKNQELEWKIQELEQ

4H3364-bN = biological target: T41, 4H3364-bN; assay: two-hybrid library CCNG1
T41 chain: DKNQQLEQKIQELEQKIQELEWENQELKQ

4H2253-bN = biological target: T42, 4H2253-bN; assay: two-hybrid library CCNG1
T42 chain: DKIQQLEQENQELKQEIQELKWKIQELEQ

4H796-bN = biological target: T43, 4H796-bN; assay: two-hybrid library CCNG1
T43 chain: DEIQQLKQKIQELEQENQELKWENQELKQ

4H56-bN = biological target: T44, 4H56-bN; assay: two-hybrid library CCNG1
T44 chain: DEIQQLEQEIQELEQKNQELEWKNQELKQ

4H3297-bN = biological target: T45, 4H3297-bN; assay: two-hybrid library CCNG1
T45 chain: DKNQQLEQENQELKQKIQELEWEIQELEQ

4H2760-bN = biological target: T46, 4H2760-bN; assay: two-hybrid library CCNG1
T46 chain: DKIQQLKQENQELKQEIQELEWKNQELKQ

4H3041-bN = biological target: T47, 4H3041-bN; assay: two-hybrid library CCNG1
T47 chain: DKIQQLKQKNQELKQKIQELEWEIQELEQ

4H730-bN = biological target: T48, 4H730-bN; assay: two-hybrid library CCNG1
T48 chain: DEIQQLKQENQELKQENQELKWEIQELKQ

4H949-bN = biological target: T49, 4H949-bN; assay: two-hybrid library CCNG1
T49 chain: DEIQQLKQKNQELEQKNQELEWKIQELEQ

4H2585-bN = biological target: T50, 4H2585-bN; assay: two-hybrid library CCNG1
T50 chain: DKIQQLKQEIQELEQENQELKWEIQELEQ

4H2444-bN = biological target: T51, 4H2444-bN; assay: two-hybrid library CCNG1
T51 chain: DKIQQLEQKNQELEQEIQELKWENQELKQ

4H264-bN = biological target: T52, 4H264-bN; assay: two-hybrid library CCNG1
T52 chain: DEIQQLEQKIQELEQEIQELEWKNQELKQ

4H932-bN = biological target: T53, 4H932-bN; assay: two-hybrid library CCNG1
T53 chain: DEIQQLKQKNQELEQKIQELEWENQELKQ

interaction score (4H2944-bN): -0.735
interaction score (4H342-bN): -0.943
interaction score (4H491-bN): -0.954
interaction score (4H48-bN): -0.0947
Binder: DKIQQLKQKIQELKQKNQELKWKNQELKQ [4H2944-bN]

interaction score (4H1351-AA): 0.323
interaction score (4H3606-AA): -1.64
interaction score (4H697-AA): -1.65
interaction score (4H340-AA): -1
interaction score (4H3588-AA): 0.934
interaction score (4H1874-AA): -1.67
interaction score (4H3162-AA): -1.42
interaction score (4H1513-AA): -0.583
interaction score (4H3718-AA): 0.664
interaction score (4H1388-AA): -0.254
interaction score (4H3413-AA): -1.34
interaction score (4H1845-AA): -1.17
interaction score (4H3631-AA): 2.1
interaction score (4H3697-AA): -1.37
interaction score (4H384-AA): 0.76
interaction score (4H3378-AA): -1.5
interaction score (4H3865-AA): -1.73
interaction score (4H2198-AA): -1.4
interaction score (4H3133-AA): -0.555
interaction score (4H2907-AA): -1.52
interaction score (4H1401-AA): -1.25
interaction score (4H2553-AA): -1.95
interaction score (4H2648-AA): -0.804
interaction score (4H3056-AA): -1.54
interaction score (4H982-AA): -0.516
interaction score (4H1629-AA): -1.62
interaction score (4H1594-AA): -1.24
interaction score (4H32-AA): -0.591
interaction score (4H2620-AA): -0.325
interaction score (4H2611-AA): -0.748
Binder: DENAALEAKIAALKAEIAALEAKNAALEG [4H1351-AA]

interaction score (4H235-bN): -0.204
interaction score (4H2518-bN): 0.436
interaction score (4H2931-bN): -0.437
interaction score (4H2859-bN): -0.113
interaction score (4H349-bN): -0.821
interaction score (4H3381-bN): -0.558
interaction score (4H3364-bN): -1.32
interaction score (4H2253-bN): 1.16
interaction score (4H796-bN): -1.07
interaction score (4H56-bN): -0.248
interaction score (4H3297-bN): 0.232
interaction score (4H2760-bN): 0.286
interaction score (4H3041-bN): -0.989
interaction score (4H730-bN): -0.523
interaction score (4H949-bN): -0.506
interaction score (4H2585-bN): -1.66
interaction score (4H2444-bN): 0.131
interaction score (4H264-bN): 0.574
interaction score (4H932-bN): -0.7
Binder: DKIQQLEQENQELKQEIQELKWKIQELEQ [4H2253-bN]
